Test results reported in US20220306688A1 (EMORY UNIVERSITY, published 2022).

Target: T1, KRAS-G12V (Homo sapiens, UniProt P01116 1-189, limits assumed)
T1 construct: also called G12V mutant of KRAS
Experiment: disruption of the JAK1/KRAS-G12V interaction; the sentence names TR-FRET (FIG. 2B) and GST pull-down (FIG. 2C) and does not say which gave the value; competitor JAK1

B1: RasKi: 8-mer 603-610 (peptide)
peptide: MDYKDDEG
notes: It was co-expressed or transduced by lentivirus in some cell assays; also called 8-mer WT; 8-mer peptide
IC50: 870 nM
